Data taken from the supplement of paper PMC9170038.

Experiments:
[1] = tested on: MS2 coat protein; experiment: apparent KD of MS2 coat protein, switch OFF state (with FMN for OFF switches, without FMN for ON switches); designed switch direction (-1 OFF switch, 1 ON switch): -1; higher = weaker reporter binding; conditions: FMN input: 0 or 200 uM; Eterna round: R93 (includes R88 designs)
Outline: (§1)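 For every design, apparent KD is the median of normalised binding-curve fits from its clusters. The RNA switches were transcribed on-chip from Illumina sequencing clusters and titrated with SNAP-549-labelled MS2 coat protein (twofold steps, 0.7 or 1.5 nM to 3 µM; 0.8–1.5 h to 10–20 min per step). Titrations used 100 mM Tris-HCl pH 7.5, 80 mM KCl, 4 mM MgCl2, without or with constant ligand.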

[2] = tested on: MS2 coat protein; experiment: apparent KD of MS2 coat protein, switch ON state; designed switch direction (-1 OFF switch, 1 ON switch): -1; higher = weaker reporter binding; conditions: FMN input: 0 or 200 uM; Eterna round: R93 (includes R88 designs)
Outline: as §1

Sequence: AACCCGCUAGGAUAUACAGCAGGGAUUCGAAAACCCACGAAACAUGAGGAUCACCCAUGUAGAAGGAGUAGGGA [Bereatenat]
- apparent KD of MS2 coat protein [1]: 21.1 nM
- apparent KD of MS2 coat protein [2]: 22.7 nM

Sequence: AUAAAACAUGAGGAUCACCCAUGUGAGGAUAUCCUAAAAGAAAGAAAAAAAAAAAAAUGGAGAAGGCACAAUAA [Amethyst 47]
- apparent KD of MS2 coat protein [1]: 159 nM
- apparent KD of MS2 coat protein [2]: 119 nM

Sequence: AGCUAGUGAGGAUAUACGAACAUGUCAAAAGACGUGAAGAAACAUGAGGAUCACCCAUGUAGAAGGCACUAGCA [Mat - Exclusion 2 - JL-Eli mod - D55]
- apparent KD of MS2 coat protein [1]: 14.9 nM
- apparent KD of MS2 coat protein [2]: 15.5 nM

Sequence: AAGAAGUAAGGAUAUCGGAGAGAACAAGAAAGUGAAGAAUACGAGAAGGUACAUGAGGAUCACCCAUGUAAAGA [EXC - 4]
- apparent KD of MS2 coat protein [1]: 19 nM
- apparent KD of MS2 coat protein [2]: 26.9 nM

Sequence: CUCAUGUCAGGAUAUCCAUGAAAUGAAGUGAAAGAAAAGAAGGAGAAGGGACAUGAGGAUCACCCAUGUUAGAA [EteRNA is fun!]
- apparent KD of MS2 coat protein [1]: 17.1 nM
- apparent KD of MS2 coat protein [2]: 34.1 nM

Sequence: CUCAUGUUAGGAUAUAUAUGAAAUGAAGUGAAAGAAAAGAAAUAGAAGGAACAUGAGGAUCACCCAUGUUAGAA [EteRNA is fun!]
- apparent KD of MS2 coat protein [1]: 32.6 nM
- apparent KD of MS2 coat protein [2]: 51 nM

Sequence: AUUAUGUCAGGAUAUCAGUAGUAAAAAAAAAAAAUUACUACUGAGAAGGGACAUGAGGAUCACCCAUGUCAAAA [EX4 308: Super Stable 8]
- apparent KD of MS2 coat protein [1]: 34 nM
- apparent KD of MS2 coat protein [2]: 39 nM

Sequence: AAAAAUAGAGGAUAUACAUGAAAAAAAAAAAAAAAAAAAAAACAUGAGGAUCACCCAUGUAGAAGGCUAAAAAA [double AU!]
- apparent KD of MS2 coat protein [1]: 29.2 nM
- apparent KD of MS2 coat protein [2]: 30.8 nM

Sequence: AAAAUACAUGAGGAUCACCCAUGUGAGGAUAUGCUAUGGAAAUAAAAAAUAAAACAUAGCAGAAGGUACAAAAA [Mat - Exclusion 1 - Eli mod - D42]
- apparent KD of MS2 coat protein [1]: 33.7 nM
- apparent KD of MS2 coat protein [2]: 20.9 nM

Sequence: GUGUACAGAGGAUAUACUGGAGCUAGGAAACUAGCAAGAUCACAUGAGGAUCACCCAUGUAGAAGGCUGUACAC [Ex2: 743]
- apparent KD of MS2 coat protein [1]: 20.2 nM
- apparent KD of MS2 coat protein [2]: 90.8 nM

Sequence: AACUGACAUGAGGAUCACCCAUGUCAGGAUAUGCUUCAUAAAAAAAAAAAAAAAUGAUGCAGAAGGGACAUGGG [Design 32 :P Sub-opt 8]
- apparent KD of MS2 coat protein [1]: 110 nM
- apparent KD of MS2 coat protein [2]: 41.6 nM

Sequence: AACGGGCUAGGAUAUACACAAGCCUCAGAACAAAUAAACAAACAUGAGGAUCACCCAUGUAGAAGGAGCGCAAA [Lesocerean]
- apparent KD of MS2 coat protein [1]: 42.9 nM
- apparent KD of MS2 coat protein [2]: 30.6 nM

Sequence: AUCUUGUCAGGAUAUGACUACAUAAAAAAUAAAAAAUGUAGUCAGAAGGGACAUGAGGAUCACCCAUGUACCAA [Mat - Exclusion 4 - Eli mod - D96]
- apparent KD of MS2 coat protein [1]: 22.3 nM
- apparent KD of MS2 coat protein [2]: 20.4 nM

Sequence: AAAUAGUUAGGAUAUACAUGAGGAUCACCCAUGUGGACUUAUGGAGAAUAAUUUAGUGGUAGAAGGGACUAAAA [EX2 Malc#27]
- apparent KD of MS2 coat protein [1]: 44.6 nM
- apparent KD of MS2 coat protein [2]: 46.4 nM

Sequence: AAGAACGGAGGAUAUACAUGAAAGAAAGAAAAGAAAAGAAAACAUGAGGAUCACCCAUGUAGAAGGCCGAAGAA [EteRNA is fun!]
- apparent KD of MS2 coat protein [1]: 53.3 nM
- apparent KD of MS2 coat protein [2]: 23.4 nM

Sequence: GCAAAGUGAGGAUAUACGCGAACAAAAAUAAAAAAGAAAGCGUAGAAGGCACAUGAGGAUCACCCAUGUCCAGC [Mat - Exaclusion 4 - Eli mod - D77]
- apparent KD of MS2 coat protein [1]: 30.3 nM
- apparent KD of MS2 coat protein [2]: 23.7 nM

Sequence: AGAAAACAUGAGGAUCACCCAUGUGAGGAUAUCUAAAAGAAAAGAAAAGAAAGAAGAAGGAGAAGGCACAAGAA [Sanakhte]
- apparent KD of MS2 coat protein [1]: 29.4 nM
- apparent KD of MS2 coat protein [2]: 37.4 nM

Sequence: AAGAACAGAGGAUAUACAUGAGGAUCACCCAUGUAAAAGAAAGAAAAGGGAAAGAAAAGUAGAAGGCUGAAGAA [Ankhkheperure Smenkhkare]
- apparent KD of MS2 coat protein [1]: 42.8 nM
- apparent KD of MS2 coat protein [2]: 22.9 nM

Sequence: CUCUAGUGAGGAUAUCCAAGAAAAGAAGAGAAAGAAAAGAAGGAGAAGGCACAUGAGGAUCACCCAUGUAAGAA [EteRNA is fun!]
- apparent KD of MS2 coat protein [1]: 35.8 nM
- apparent KD of MS2 coat protein [2]: 44.1 nM

Sequence: AAAACGUGAGGAUAUGCACCAAAAAAGGAAAAACGGGUACGACAUGAGGAUCACCCAUGUAGAAGGCACGAAAA [Frodo Flailing 9 - Jieux - Exclusion 2]
- apparent KD of MS2 coat protein [1]: 39 nM
- apparent KD of MS2 coat protein [2]: 40.8 nM

Sequence: AAAGAUGCAGGAUAUACAUGAGGAUCACCCAUGUUAGACCAGAAAUGGGAAAAAGAAAGUAGAAGGGCAUAAAA [Ex 3 May 33]
- apparent KD of MS2 coat protein [1]: 119 nM
- apparent KD of MS2 coat protein [2]: 18.2 nM

Sequence: AACGCGUCAGGAUAUAGCAUAAAUUACGUAGUACGACCAUACUAGAAGGGACAUGAGGAUCACCCAUGUGGGUA [JR_Exc004_Sub207]
- apparent KD of MS2 coat protein [1]: 90.4 nM
- apparent KD of MS2 coat protein [2]: 167 nM

Sequence: AAAAAGUCAGGAUAUGCGAAGGCGUCUGAUAGACGAGGCUAGCAGAAGGGACAUGAGGAUCACCCAUGUAAAGA [Mat - Exclusion 4 - D82]
- apparent KD of MS2 coat protein [1]: 51.3 nM
- apparent KD of MS2 coat protein [2]: 50 nM

Sequence: AAAAAGAUAGGAUAUACAUGAAAAAAAAAAAAAAAAAAAAGACAUGAGGAUCACCCAUGUAGAAGGGUCAAAAA [water's exclusion 2 2nd]
- apparent KD of MS2 coat protein [1]: 42.1 nM
- apparent KD of MS2 coat protein [2]: 50.3 nM

Sequence: CAAAGGUGAGGAUAUACAAAACUAUGACGAAAGUCAUAAAAACAUGAGGAUCACCCAUGUAGAAGGCACCACAA [E2 64% 2]
- apparent KD of MS2 coat protein [1]: 23.7 nM
- apparent KD of MS2 coat protein [2]: 31.6 nM

Sequence: GAAAAGUCAGGAUAUAUGCGAAAAAUAAAAAAAAUAAAAACAUAGAAGGGACAUGAGGAUCACCCAUGUUAAAA [Mat - Exclusion 4 - Mayanna - D134]
- apparent KD of MS2 coat protein [1]: 29.7 nM
- apparent KD of MS2 coat protein [2]: 41.6 nM

Sequence: AAAAAUGGAGGAUAUACAUGAGGAUCACCCAUGUGUAACUAUACUAAGCGCUCCUCACGUAGAAGGCCAAAAAA [Gilly Gone Silly 14 - Jieux - Exclusion 3]
- apparent KD of MS2 coat protein [1]: 31.4 nM
- apparent KD of MS2 coat protein [2]: 74.1 nM

Sequence: AAGGUAUAAGGAUAUGCAUAGAUACAGACACAUGUUCAAGUACAUGAGGAUCACCCAUGUAGAAGGUAUAUAUA [AJ 12]
- apparent KD of MS2 coat protein [1]: 26 nM
- apparent KD of MS2 coat protein [2]: 32.2 nM

Sequence: GGAAAACAUGAGGAUCACCCAUGUGAGGAUAUCGAUGUCCAAACCAAAGUGCGGGACUCGAGAAGGCACUUGGA [salish99-ex1-37]
- apparent KD of MS2 coat protein [1]: 28.6 nM
- apparent KD of MS2 coat protein [2]: 45.9 nM

Sequence: GAAGAACAUGAGGAUCACCCAUGUCAGGAUAUACAGAAGGGAAUAAUAUAACCUGAAAGUAGAAGGGACAAGAA [Ex 1 May 43]
- apparent KD of MS2 coat protein [1]: 46.2 nM
- apparent KD of MS2 coat protein [2]: 33.9 nM

Sequence: AAGAAGUCAGGAUAUCGAAGACUGUCGAAAAGACAGUCGAACGAGAAGGGACAUGAGGAUCACCCAUGUGGAAA [Marsurpial 65% 7]
- apparent KD of MS2 coat protein [1]: 112 nM
- apparent KD of MS2 coat protein [2]: 56.3 nM

Sequence: CUCUAGUCAGGAUAUGCAAGAAAAGAAGAGAAAGAAAAGAAGCAGAAGGGACAUGAGGAUCACCCAUGUAAGAA [EteRNA is fun!]
- apparent KD of MS2 coat protein [1]: 83.4 nM
- apparent KD of MS2 coat protein [2]: 51.3 nM

Sequence: AAAUUGUCAGGAUAUGUACGAACAACAAAACAAAUAACGGUACAGAAGGGACAUGAGGAUCACCCAUGUAUAAA [May 72]
- apparent KD of MS2 coat protein [1]: 73.2 nM
- apparent KD of MS2 coat protein [2]: 65.8 nM

Sequence: AUCAUGUAAGGAUAUUUAAGAAAAGAAAAGAAAGAAAAGAAAAAGAAGGUACAUGAGGAUCACCCAUGUAAGAA [EteRNA is fun!]
- apparent KD of MS2 coat protein [1]: 18.9 nM
- apparent KD of MS2 coat protein [2]: 27.1 nM

Sequence: AAAAAUCGAGGAUAUACAUGAGGAUCACCCAUGUUAGAAAAUGAUUACACAAAAGAAAGUAGAAGGCGAUAAAA [Ex 3 May 20]
- apparent KD of MS2 coat protein [1]: 23.4 nM
- apparent KD of MS2 coat protein [2]: 27.9 nM

Sequence: AUAGUACAUGAGGAUCACCCAUGUCAGGAUAUGCGAAACGAAAAAAAAAAAAAGUGAAGUAGAAGGGACUAUAA [EX1 Malc#9]
- apparent KD of MS2 coat protein [1]: 30.4 nM
- apparent KD of MS2 coat protein [2]: 29.8 nM

Sequence: AACAGUACAGGAUAUACAUGAGGAUCACCCAUGUGGGUAAAAAGAUCGAGAGAUCCAUGUAGAAGGGUACUGGA [JL In the Red 05]
- apparent KD of MS2 coat protein [1]: 37.9 nM
- apparent KD of MS2 coat protein [2]: 36.7 nM

Sequence: AAGGGACAUGAGGAUCACCCAUGUCAGGAUAUCGGAAAAGGAAAAAAAAAAAAGAAGACGAGAAGGGACACCAA
- apparent KD of MS2 coat protein [1]: 26.8 nM
- apparent KD of MS2 coat protein [2]: 28.6 nM

Sequence: AACAGUACAGGAUAUACAUGAGGAUCACCCAUGUGAAAAUUAAGUGGCGAACCACAAUGUAGAAGGGUACUGGA [Mat - Exclusion 3 - Eli mod - D47]
- apparent KD of MS2 coat protein [1]: 25.9 nM
- apparent KD of MS2 coat protein [2]: 81.9 nM

Sequence: AAAACGGUAGGAUAUACGAUUGGGAACUAGACCGAGGAACCACAUGAGGAUCACCCAUGUAGAAGGGCCAAAAA [Ex2 Malc#14]
- apparent KD of MS2 coat protein [1]: 16.7 nM
- apparent KD of MS2 coat protein [2]: 16.9 nM
